# Read-outs that look alike come from different tables or passages of the source.
# How the values were obtained:
# [1] = biological target: HIV-1 full-length wild-type capsid protein (CA), residues 1-231 (HIV-1) (UniProt P03347); assay: dynamic light scattering
# [2] = biological target: HIV-1 full-length wild-type capsid protein (CA), residues 1-231 (HIV-1) (UniProt P03347); assay: dynamic light scattering; remark: listed apart in the source
substance,measurement,setting,value
"HIV-1 full-length wild-type capsid protein (CA), residues 1-231 (from UniProt P03347 133-363) (natural protein)",stoichiometry N,[1],2
same,stoichiometry N,[2],2

# — paper PMC3194004
